The target of series [1] is T1, Pea leaf FNR (Lathyrus oleraceus, UniProt P10933).
T1 construct: gene PETH; preparation of the assayed enzyme not described; monomeric FAD flavoprotein
T1 sequence (P10933 53-360): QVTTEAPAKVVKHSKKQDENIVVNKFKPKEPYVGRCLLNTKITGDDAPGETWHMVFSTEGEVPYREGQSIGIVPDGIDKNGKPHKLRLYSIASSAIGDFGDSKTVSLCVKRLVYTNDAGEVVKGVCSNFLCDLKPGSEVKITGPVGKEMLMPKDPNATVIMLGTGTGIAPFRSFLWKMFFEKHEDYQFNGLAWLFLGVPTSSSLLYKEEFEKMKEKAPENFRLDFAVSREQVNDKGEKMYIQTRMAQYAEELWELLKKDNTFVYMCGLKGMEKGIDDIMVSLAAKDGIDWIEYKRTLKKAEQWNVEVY
The experiment in a line: difference absorption spectroscopy. The class given is binding. As to conditions: read-out: K d ^NADP+ /. The source says: difference absorption spectroscopy on Pea leaf FNR

In series [2] the target is T2, E. coli FNR (Escherichia coli, UniProt P28861).
T2 construct: gene fpr; ferredoxin-NADP(H) reductase, not the FNR transcription regulator
T2 sequence (P28861 2-248): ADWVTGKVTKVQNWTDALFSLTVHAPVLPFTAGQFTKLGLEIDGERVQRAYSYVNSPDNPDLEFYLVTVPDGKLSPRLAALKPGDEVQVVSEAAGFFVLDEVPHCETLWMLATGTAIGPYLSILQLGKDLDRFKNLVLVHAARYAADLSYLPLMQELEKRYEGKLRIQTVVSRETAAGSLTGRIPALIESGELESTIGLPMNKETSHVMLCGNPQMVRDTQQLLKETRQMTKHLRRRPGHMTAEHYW
The experiment in a line: difference absorption spectroscopy. As to conditions: read-out: K d ^NADP+ /. Type of series: binding. The source says:
difference absorption spectroscopy on E. coli FNR

For series [3], the target named is T3, LepFNR (Leptospira interrogans, UniProt Q8EY89).
T3 construct: gene LA_4327; recombinant in E. coli BL21(DE3)pLysS, thioredoxin fusion (pET32JO-LepFNR) cut off by thrombin; monomeric FAD flavoprotein
T3 sequence (Q8EY89 entry or part of it): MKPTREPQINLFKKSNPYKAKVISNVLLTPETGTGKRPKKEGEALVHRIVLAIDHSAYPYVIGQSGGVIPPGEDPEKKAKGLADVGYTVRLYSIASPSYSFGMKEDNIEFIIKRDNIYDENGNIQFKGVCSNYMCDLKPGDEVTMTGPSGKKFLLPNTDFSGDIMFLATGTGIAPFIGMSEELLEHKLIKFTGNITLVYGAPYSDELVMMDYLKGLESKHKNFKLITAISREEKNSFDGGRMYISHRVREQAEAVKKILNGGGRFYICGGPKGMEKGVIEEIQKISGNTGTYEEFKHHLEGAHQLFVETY
The experiment in a line: difference absorption spectroscopy titration. Type of series: binding. From the text:
difference absorption spectroscopy titration on LepFNR

For series [4], the target named is T3, LepFNR. The experiment in a line: UV-visible spectrum; FAD fluorescence (release with urea). Type of series: binding. As to conditions: noncovalently bound prosthetic group, 50 mM Tris-HCl pH 8.0, 25 °C.
For series [5], the target named is T2, E. coli FNR. The experiment in a line: UV-visible spectrum. Type of series: binding. The settings on record: noncovalently bound prosthetic group.
The target of series [6] is Leptospira interrogans ferredoxin-NADP(H) reductase (L. interrogans).
Series [7] shares this target. This is another data set of the same source.
Series [8] concerns NC(=O)C1=CN([C@@H]2O[C@H](COP(=O)(O)OP(=O)(O)OC[C@H]3O[C@@H](n4cnc5c(N)ncnc54)[C@H](OP(=O)(O)O)[C@@H]3O)[C@@H](O)[C@H]2O)C=CC1. The experiment in a line: purified protein. As to conditions: 1 mM potassium ferricyanide, NADPH regenerating system, 50 mM Tris-HCl pH 8.0, 30 °C.
Substrate in series [9]: NC(=O)C1=CN([C@@H]2O[C@H](COP(=O)(O)OP(=O)(O)OC[C@H]3O[C@@H](n4cnc5c(N)ncnc54)[C@H](OP(=O)(O)O)[C@@H]3O)[C@@H](O)[C@H]2O)C=CC1
The experiment in a line: purified protein. Type of series: biochemical, Escherichia coli. As to conditions: 1 mM potassium ferricyanide, NADPH regenerating system, 50 mM Tris-HCl pH 8.0, 30 °C.

Substrate in series [10]: NC(=O)C1=CN([C@@H]2O[C@H](COP(=O)(O)OP(=O)(O)OC[C@H]3O[C@@H](n4cnc5c(N)ncnc54)[C@H](OP(=O)(O)O)[C@@H]3O)[C@@H](O)[C@H]2O)C=CC1
The experiment in a line: purified protein. The class given is biochemical, Lathyrus oleraceus. The settings on record: 1 mM potassium ferricyanide, NADPH regenerating system, 50 mM Tris-HCl pH 8.0, 30 °C.

Turning to `NC(=O)c1ccc[n+]([C@@H]2O[C@H](COP(=O)(O)OP(=O)(O)OC[C@H]3O[C@@H](n4cnc5c(N)ncnc54)[C@H](OP(=O)(O)O)[C@@H]3O)[C@@H](O)[C@H]2O)c1` [NADP^+], the Kd in series [1] was found to be 11.3 ± 2.1 µM; in series [2], 7.6 ± 2.2 µM; in series [3] it was 13.2 ± 3.1 µM.
Regarding `Cc1cc2nc3c(=O)[nH]c(=O)nc-3n(C[C@H](O)[C@H](O)[C@H](O)COP(=O)(O)OP(=O)(O)OC[C@H]3O[C@@H](n4cnc5c(N)ncnc54)[C@H](O)[C@@H]3O)c2cc1C` [FAD], in [4], the “UV-visible spectrum; FAD fluorescence (release with urea)” value is given as “the prosthetic group remains bound to the enzyme”. In addition, the UV-visible spectrum result in [5] is “spectra of the pea leaf FNR, E. coli FNR and LepFNR, all essentially in oxidized states”.
With “Leptospira interrogans LB107 [4Fe-4S] ferredoxin (natural protein)”, in series [6], the NADPH-cytochrome c reductase activity of LepFNR with LB107 ferredoxin under anaerobic conditions at different pH values; maximal specific activity at pH 6.5, lower at higher pH was 6.13 µmol/min/mg.
In turn, “Pisum sativum leaf ferredoxin (from UniProt P09911 53-149) (natural protein)” returned an NADPH-cytochrome c reductase activity of LepFNR with P. sativum leaf ferredoxin; the reaction was linear with pea leaf ferredoxin up to 70 µM, no kinetic parameters determined in series [7] of 2.5 s⁻¹.
As for “LepFNR (Leptospira interrogans serovar Lai str. 56601)”, in series [8], the Km came out at 14.5 ± 1.7 µM, the turnover number (kcat) came to 258 ± 13.7 s⁻¹ and the kcat/Km was found to be 1.78e+07 M⁻¹ s⁻¹.

B1: E. coli FNR (Escherichia coli K-12) (protein)
chain: T2 sequence (P28861 2-248)
notes: ferredoxin-NADP(H) reductase, not the FNR transcription regulator
B1: in series [9], the Km came out at 8.3 ± 0.5 µM, the kcat came out at 38.2 ± 2.3 s⁻¹ and the catalytic efficiency (kcat/Km) worked out at 5e+06 M⁻¹ s⁻¹.

B2: Pea leaf FNR (Lathyrus oleraceus) (protein)
chain: T1 sequence (P10933 53-360)
notes: preparation of the assayed enzyme not described; monomeric FAD flavoprotein
Turning to B2, in series [10], the Km is 15.0 ± 1.6 µM, the kcat was determined as 325 ± 16.5 s⁻¹ and the kcat/Km came to 2.17e+07 M⁻¹ s⁻¹.

As usually defined, the Km is the concentration of substrate that gives half-maximal velocity. A word on the kcat: it is the number of substrate molecules converted per active site and unit of time at saturation. In general, kcat/Km refers to the turnover number divided by the Michaelis constant.
